Test results published in article PMC10786891, “Massively parallel profiling of RNA-targeting CRISPR-Cas13d”.
Positions count from the first letter of the chain named. Numbers in names are those of the source.

T1: EsCas13d, nuclease-dead (Eubacterium siraeum, UniProt B0MS50, R295A;H300A;R849A;H854A)
T1 sequence: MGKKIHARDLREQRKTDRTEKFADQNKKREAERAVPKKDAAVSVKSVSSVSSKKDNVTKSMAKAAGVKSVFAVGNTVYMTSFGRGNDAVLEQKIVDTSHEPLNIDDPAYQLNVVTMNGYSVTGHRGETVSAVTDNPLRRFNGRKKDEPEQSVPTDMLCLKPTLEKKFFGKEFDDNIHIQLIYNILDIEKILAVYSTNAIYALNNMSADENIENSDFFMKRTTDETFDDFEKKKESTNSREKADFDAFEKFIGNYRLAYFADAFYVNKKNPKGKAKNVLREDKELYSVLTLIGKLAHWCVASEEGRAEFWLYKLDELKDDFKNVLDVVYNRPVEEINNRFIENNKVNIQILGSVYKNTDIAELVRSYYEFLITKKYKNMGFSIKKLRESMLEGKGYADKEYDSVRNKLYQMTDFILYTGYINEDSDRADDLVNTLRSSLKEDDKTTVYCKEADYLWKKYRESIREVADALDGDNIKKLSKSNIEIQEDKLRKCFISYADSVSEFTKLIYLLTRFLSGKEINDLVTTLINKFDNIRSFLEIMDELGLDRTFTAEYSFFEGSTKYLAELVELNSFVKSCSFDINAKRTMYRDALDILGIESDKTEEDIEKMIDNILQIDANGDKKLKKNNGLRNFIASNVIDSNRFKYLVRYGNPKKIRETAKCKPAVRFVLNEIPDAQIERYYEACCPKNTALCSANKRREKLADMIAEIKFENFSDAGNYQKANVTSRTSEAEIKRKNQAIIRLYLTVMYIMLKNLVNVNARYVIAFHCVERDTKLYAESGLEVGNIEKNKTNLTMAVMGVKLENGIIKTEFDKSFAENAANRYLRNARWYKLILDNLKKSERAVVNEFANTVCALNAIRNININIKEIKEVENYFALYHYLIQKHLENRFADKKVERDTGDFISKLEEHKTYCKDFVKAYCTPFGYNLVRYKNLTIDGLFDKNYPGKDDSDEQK

B1: target 1 U8G,U19G (mixed)
RNA 1: CACCCGUGCAAAAAUGCAGGGGUCUAAAACUGAGCGGAUAACCUCUCUAUGG
RNA 2: GGGAAUGGAUCCACAUCUACGAAUUCGUACCAGAGAGAGGUUAGCCGCUCACCGAGAUCGGAAGAGCACACGU
B2: target 1 insA 3' of 10,insU 3' of 4 (mixed)
RNA 1: B1 RNA 1
RNA 2: GGGAAUGGAUCCACAUCUACGAAUUCGUACCAUAGAGAGGUUAAUCCGCUUCACCGAGAUCGGAAGAGCACACGU
B3: target 1 insU 3' of 7,insG 3' of 3 (mixed)
RNA 1: B1 RNA 1
RNA 2: B2 RNA 2 with A44U, U45C, C46U, U51G
B4: target 1 U3G,U11A (mixed)
RNA 1: B1 RNA 1
RNA 2: B1 RNA 2 with G33U, U41A, G44U, U49G
B5: target 1 U3G,C21U (mixed)
RNA 1: B1 RNA 1
RNA 2: B1 RNA 2 with C31U, G33U, G44U, U49G
B6: target 1 insA 3' of 22,insC 3' of 13 (mixed)
RNA 1: B1 RNA 1
RNA 2: GGGAAUGGAUCCACAUCUACGAAUUCGUACACAUAGAGAGCGUUAUCCGCUCACCGAGAUCGGAAGAGCACACGU
B7: target 1 insU 3' of 15,insG 3' of 8 (mixed)
RNA 1: B1 RNA 1
RNA 2: B2 RNA 2 with A38U, G39A, U41G, A43U, C46G, G48C, C49G, U50C
B8: target 1 insG 3' of 21,insG 3' of 2 (mixed)
RNA 1: B1 RNA 1
RNA 2: GGGAAUGGAUCCACAUCUACGAAUUCGUACCGAUAGAGAGGUUAUCCGCUCGACCGAGAUCGGAAGAGCACACGU
B9: target 1 C6G,U11A (mixed)
RNA 1: B1 RNA 1
RNA 2: B1 RNA 2 with G33U, U41A, G44U, C46G
B10: target 1 insC 3' of 10,insA 3' of 8 (mixed)
RNA 1: B1 RNA 1
RNA 2: B2 RNA 2 with A43C, C46A, G48C, C49G, U50C
B11: target 1 C7A,C22A (mixed)
RNA 1: B1 RNA 1
RNA 2: B1 RNA 2 with C30A, G33U, G44U, C45A
B12: target 1 C7U,G15A (mixed)
RNA 1: B1 RNA 1
RNA 2: B1 RNA 2 with G33U, G37A, G44U, C45U
B13: target 1 del8,del15 (mixed)
RNA 1: B1 RNA 1
RNA 2: GGGAAUGGAUCCACAUCUACGAAUUCGUACCAUAGAAGGUUACCGCUCACCGAGAUCGGAAGAGCACACGU
B14: target 1 C6G,A9G (mixed)
RNA 1: B1 RNA 1
RNA 2: B1 RNA 2 with G33U, A43G, G44U, C46G
B15: target 1 U8A,G17A (mixed)
RNA 1: B1 RNA 1
RNA 2: B1 RNA 2 with G33U, G35A, G44A
B16: target 1 A1U,U3A (mixed)
RNA 1: B1 RNA 1
RNA 2: B1 RNA 2 with G33U, G44U, U49A, A51U
B17: target 1 insU 3' of 4,insG 3' of 4 (mixed)
RNA 1: B1 RNA 1
RNA 2: B2 RNA 2 with A44U, U45C, C47G, G48C, C49U, U50G
B18: target 1 del13,del16 (mixed)
RNA 1: B1 RNA 1
RNA 2: B13 RNA 2 with A36G, G39U, U41A, A42U
B19: target 1 insG 3' of 19,insG 3' of 8 (mixed)
RNA 1: B1 RNA 1
RNA 2: B6 RNA 2 with A31C, C32A, A33U, U34G, C41G, G42U, U44A, A45U, U46G
B20: target 1 insU 3' of 22,insU 3' of 2 (mixed)
RNA 1: B1 RNA 1
RNA 2: B8 RNA 2 with C31U, G32C, G52U
B21: target 1 U8G,A20C (mixed)
RNA 1: B1 RNA 1
RNA 2: B1 RNA 2 with A32C, G33U
B22: target 1 A1C,U3A (mixed)
RNA 1: B1 RNA 1
RNA 2: B1 RNA 2 with G33U, G44U, U49A, A51C
B23: target 1 insG 3' of 22,insG 3' of 14 (mixed)
RNA 1: B1 RNA 1
RNA 2: B6 RNA 2 with A31G, C41G
B24: target 1 C2G,U10A (mixed)
RNA 1: B1 RNA 1
RNA 2: B1 RNA 2 with G33U, U42A, G44U, C50G
B25: target 1 insG 3' of 8,insA 3' of 4 (mixed)
RNA 1: B1 RNA 1
RNA 2: B2 RNA 2 with A44U, U45G, U50A
B26: target 1 insU 3' of 15,insA 3' of 5 (mixed)
RNA 1: B1 RNA 1
RNA 2: B2 RNA 2 with A38U, G39A, U41G, A43U, C49A, U50C
B27: target 1 G12U,A16U (mixed)
RNA 1: B1 RNA 1
RNA 2: B1 RNA 2 with G33U, A36U, G40U, G44U
B28: target 1 A9U,A20C (mixed)
RNA 1: B1 RNA 1
RNA 2: B1 RNA 2 with A32C, G33U, A43U, G44U
B29: target 1 insA 3' of 21,insG 3' of 10 (mixed)
RNA 1: B1 RNA 1
RNA 2: B6 RNA 2 with A31C, C32A, C41G, G42U, U44G
B30: target 1 insA 3' of 11,insC 3' of 10 (mixed)
RNA 1: B1 RNA 1
RNA 2: B2 RNA 2 with U42A, A43U, A44C, U45A, C46U, G48C, C49G, U50C
B31: target 1 del7,del20 (mixed)
RNA 1: B1 RNA 1
RNA 2: B13 RNA 2 with A32U, U33A, A34G, G35A, A36G, C43U
B32: target 1 insC 3' of 10,insU 3' of 7 (mixed)
RNA 1: B1 RNA 1
RNA 2: B2 RNA 2 with A43C, C47U, G48C, C49G, U50C
B33: target 1 insU 3' of 21,insG 3' of 8 (mixed)
RNA 1: B1 RNA 1
RNA 2: B6 RNA 2 with A31C, C32U, C41G, G42U, U44A, A45U, U46G

Target: T1, EsCas13d, nuclease-dead
Experiment: crRNA (strand 1, pre-loaded); Mg2+; 40 mM Tris-HCl pH 7.5, 150 mM NaCl, 6 mM MgCl2, 1 mM DTT, 0.1% Tween-20, 0.2 mg/ml BSA; 25 C; 10 min per concentration, then washed
Conditions: tags: His6-TwinStrep-SUMO cleaved; N-terminal SNAP kept (SNAP-Surface 488); label: 3' end held by stalled T7 RNA polymerase

Row | Binder | Kd
1 | B1 | 79 ± 15 nM
2 | B2 | 9.3 ± 0.6 nM
3 | B3 | 5.45 ± 0.31 nM
4 | B4 | 14.2 ± 1.3 nM
5 | B5 | 11 ± 1.2 nM
6 | B6 | 22 ± 1.3 nM
7 | B7 | 18.3 ± 1.7 nM
8 | B8 | 61 ± 13 nM
9 | B9 | 25.4 ± 0.9 nM
10 | B10 | 18.8 ± 0.8 nM
11 | B11 | 12.1 ± 0.5 nM
12 | B12 | 9.8 ± 0.6 nM
13 | B13 | 37.8 ± 3 nM
14 | B14 | 10.6 ± 0.9 nM
15 | B15 | 92 ± 17 nM
16 | B16 | 7.2 ± 0.6 nM
17 | B17 | 8.9 ± 0.8 nM

Row | Binder | Kd
18 | B18 | 94 ± 28 nM
19 | B19 | 58 ± 6 nM
20 | B20 | 35.9 ± 2.9 nM
21 | B21 | 91 ± 34 nM
22 | B22 | 37 ± 7 nM
23 | B23 | 28.6 ± 3.5 nM
24 | B24 | 12.7 ± 1.3 nM
25 | B25 | 12 ± 0.7 nM
26 | B26 | 21.7 ± 2.1 nM
27 | B27 | 79 ± 18 nM
28 | B28 | ~53 nM
29 | B29 | 59 ± 24 nM
30 | B30 | 14.6 ± 0.7 nM
31 | B31 | 39 ± 4 nM
32 | B32 | 19.2 ± 1.3 nM
33 | B33 | 34.9 ± 3 nM
